# From PMC7939549, “LAP2alpha maintains a mobile and low assembly state of A-type lamins in the nuclear interior” (eLife, 2021)
# T1: lamin A/C (endogenous, mEos3.2-lamin A/C WT mouse dermal fibroblasts) (mouse (endogenous in mouse dermal …, UniProt P48678 1-647))
# T1 construct: lamins A and C, both products of the mouse Lmna gene, precipitated together by lamin A/C antibodies; WT clone #21 expresses mEos3.2-tagged lamin A/C (mEos3.2 in frame before the first codon, N-terminal) from 1 allele and untagged lamin A/C from 3 alleles; the precipitated pool holds tagged and untagged lamins A and C; also called lamins A and C; A-type lamins; source: endogenous, mEos3.2-Lmna WT …
# T1 sequence (looked up): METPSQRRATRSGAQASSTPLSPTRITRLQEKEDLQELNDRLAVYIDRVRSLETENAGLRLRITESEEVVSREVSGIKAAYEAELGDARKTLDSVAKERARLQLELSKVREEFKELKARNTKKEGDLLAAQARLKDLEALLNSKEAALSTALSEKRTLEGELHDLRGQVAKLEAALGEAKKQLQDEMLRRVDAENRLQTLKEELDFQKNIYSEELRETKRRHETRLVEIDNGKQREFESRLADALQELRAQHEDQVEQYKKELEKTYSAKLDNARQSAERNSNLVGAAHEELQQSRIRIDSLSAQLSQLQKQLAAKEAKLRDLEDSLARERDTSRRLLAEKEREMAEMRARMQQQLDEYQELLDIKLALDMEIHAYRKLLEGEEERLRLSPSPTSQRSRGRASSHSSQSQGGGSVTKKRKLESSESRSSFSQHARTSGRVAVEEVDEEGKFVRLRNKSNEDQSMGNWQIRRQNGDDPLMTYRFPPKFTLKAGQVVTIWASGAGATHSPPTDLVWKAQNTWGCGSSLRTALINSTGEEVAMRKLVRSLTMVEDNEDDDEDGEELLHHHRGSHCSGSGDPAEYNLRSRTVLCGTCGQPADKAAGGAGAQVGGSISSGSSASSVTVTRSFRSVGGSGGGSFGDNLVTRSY
# Molecular target: T1, lamin A/C (endogenous, mEos3.2-lamin …)
# Test: not stated; our unpublished data; ratio of mEos3.2-lamin A and LAP2α in the complex
binder,measurement,value
"LAP2α (endogenous, mouse dermal fibroblasts) (natural protein, UniProt Q61033 1-693, looked up, lamin-associated polypeptide 2 alpha (LAP2α), mouse, endogenous, detected with antibody 1H11; also called lamin-associated polypeptide 2 alpha; source: endogenous, mEos3.2-Lmna WT mouse dermal fibroblasts, soluble cell extract) MPEFLEDPSVLTKDKLKSELVANNVTLPAGEQRKDVYVQLYLQHLTARNRPPLAAGANSKGPPDFSSDEEREPTPVLGSGASVGRGRGAVGRKATKKTDKPRLEDKDDLDVTELSNEELLDQLVRYGVNPGPIVGTTRKLYEKKLLKLREQGTESRSSTPLPTVSSSAENTRQNGSNDSDRYSDNDEGKKKEHKKVKSARDCVPFSELASTPSGAFFQGISFPEISTRPPLGRTELQAAKKVQTTKRDPPRETCTDTALPGKGQTHKLAPGRSLFIPSESSYDRCVEKSSSPSSQREFAARLVSAAASPSLIRETTTTYSKDIVENICRGGKSRAQPLRAEEPGVSDQSVFSSEREVLQESERSQVISPPLAQAIRDYVNSLLVQGGVGSLPGTSDSVPTLDVENICKRLSQSSYQDSESLSPPRKVPRLSEKPARGGDSGSCVAFQNTPGSEHRSSFAKSVVSHSLTTLGVEVSKPPPQHDKIEASEPSFPLHESILKVVEEEWQQIDRQLPSVACRYPVSSIEAARILSVPKVDDEILGFISEATPRAATQASSTESCDKHLDLALCRSYEAAASALQIAAHTAFVAKSLQADISQAAQIINSDPSDAQQALRILNRTYDAASYLCDAAFDEVRMSACAMGSSTMGRRYLWLKDCKISPASKNKLTVAPFKGGTLFGGEVHKVIKKRGNKQ",stoichiometry N,1
